Assay results as given in patent US20220291215A1 (UNIVERSITY HEALTH NETWORK, published 2022).
Positions count from the first letter of the chain named. Numbers in names are those of the source.

B1: biotinylated recombinant wild-type DP4 (extracellular domains of DPA1*01:03 and wild-type DPB1*04:01 with leucine zippers) (peptide-MHC)
MHC II alpha: IKADHVSTYAAFVQTHRPTGEFMFEFDEDEMFYVDLDKKETVWHLEEFGQAFSFEAQGGLANIAILNNNLNTLIQRSNHTQATNDPPEVTVFPKEPVELGQPNTLICHIDKFFPPVLNVTWLCNGELVTEGVAESLFLPRTDYSFHKFHYLTFVPSAEDFYDCRVEHWGLDQPLLKHWEAQEPIQMPETTETGGGGSLEIRAAFLRQRNTALRTEVAELEQEVQRLENEVSQYETRYGPLGGGKGSHHHHHHHHHH
MHC II beta: RATPENYLFQGRQECYAFNGTQRFLERYIYNREEFARFDSDVGEFRAVTELGRPAAEYWNSQKDILEEKRAVPDRMCRHNYELGGPMTLQRRVQPRVNVSPSKKGPLQHHNLLVCHVTDFYPGSIQVRWFLNGQEETAGVVSTNLIRNGDWTFQILVMLEMTPQQGDVYTCQVEHTSLDSPVTVEWKAQSDSARSKGGGGSLEIEAAFLERENTALETRVAELRQRVQRLRNRVSQYRTRYGPLGGGKGSGLNDIFEAQKIEWHE
notes: also called biotinylated wild-type DP4 (ligand)
B2: biotinylated recombinant DP4^L112W/V141M (extracellular domains of DPA1*01:03 and DPB1*04:01 L112W/V (peptide-MHC)
MHC II alpha: B1 MHC II alpha
MHC II beta: B1 MHC II beta with L112W, V141M
notes: also called DPR^L112/V141M; biotinylated DP4^L112W/V141M (ligand)

Columns and labels:
[1] = target: T1, recombinant 10x His-tagged CD4 protein (extracellular domain of human CD4, GS linker, 10x histidine tag) (human, UniProt P01730 26-390); experiment: biolayer interferometry
T1 construct: also called recombinant CD4; sCD4 (analyte)

[2] = target: T1, recombinant 10x His-tagged CD4 protein …; experiment: biolayer interferometry KD against the previously estimated KD >2 mM between CD4 and HLA class II
[3] = target: T1, recombinant 10x His-tagged CD4 protein …; experiment: biolayer interferometry (Octet Red), biotinylated DP4 on streptavidin sensors, CD4 as analyte, steady-state analysis

Binder | binding result [1] | fold improvement in the binding affinity [2] [fold] | Kd [3] [µM]
B1 | no binding (tested: 26 µM) | – | –
B2 | – | ≥ 200 | 8.9
